Measured values taken from paper PMC2121072 (The Journal of Cell Biology, 1996).

How the values were obtained:
GST-hDlg fusion protein = GST-hDlg fusion protein (Homo sapiens, UniProt Q12959); assay: Binding of ezrin / PTP-H1 to GST-hDlg; details: PTP-H1 expressed in baculovirus system; data not shown
PDZ 1+2 module = assay: Blot overlay assay; assay type: binding, human; details: data not shown
[1] = test system: protease-resistant module of hDlg containing PDZ domains 1 and 2; details: ref Lue et al., 1995 [Abstract #1557]; cited from earlier work
[2] = test system: three PDZ domains of hDlg; details: ref Lue et al., 1994; cited from earlier work

B1: PTP-H1: tyrosine phosphatase expressed in the baculovirus expression system (protein)
chain: MTSRLRALGGRINNIRTSELPKEKTRSEVICSIHFLDGVVQTFKVTKQDTGQVLLDMVHNHLGVTEKEYFGLQHDDDSVDSPRWLEASKAIRKQLKGGFPCTLHFRVRFFIPDPNTLQQEQTRHLYFLQLKMDICEGRLTCPLNSAVVLASYAVQSHFGDYNSSIHHPGYLSDSHFIPDQNEDFLTKVESLHEQHSGLKQSEAESCYINIARTLDFYGVELHSGRDLHNLDLMIGIASAGVAVYRKYICTSFYPWVNILKISFKRKKFFIHQRQKQAESREHIVAFNMLNYRSCKNLWKSCVEHHTFFQAKKLLPQEKNVLSQYWTMGSRNTKKSVNNQYCKKVIGGMVWNPAMRRSLSVEHLETKSLPSRSPPITPNWRSPRLRHEIRKPRHSSADNLANEMTYITETEDVFYTYKGSLAPQDSDSEVSQNRSPHQESLSENNPAQSYLTQKSSSSVSPSSNAPGSCSPDGVDQQLLDDFHRVTKGGSTEDASQYYCDKNDNGDSYLVLIRITPDEDGKFGFNLKGGVDQKMPLVVSRINPESPADTCIPKLNEGDQIVLINGRDISEHTHDQVVMFIKASRESHSRELALVIRRRAVRSFADFKSEDELNQLFPEAIFPMCPEGGDTLEGSMAQLKKGLESGTVLIQFEQLYRKKPGLAITFAKLPQNLDKNRYKDVLPYDTTRVLLQGNEDYINASYVNMEIPAANLVNKYIATQGPLPHTCAQFWQVVWDQKLSLIVMLTTLTERGRTKCHQYWPDPPDVMNHGGFHIQCQSEDCTIAYVSREMLVTNTQTGEEHTVTHLQYVAWPDHGVPDDSSDFLEFVNYVRSLRVDSEPVLVHCSAGIGRTGVLVTMETAMCLTERNLPIYPLDIVRKMRDQRAMMVQTSSQYKFVCEAILRVYEEGLVQMLDPS
- interaction with GST-hDlg (GST-hDlg fusion protein): no interaction

B2: protein 4.1: native protein 4.1 isolated from human RBCs (protein, UniProt P11171 1-864, looked up)
Protein 4.1: MTTEKSLVTEAENSQHQQKEEGEEAINSGQQEPQQEESCQTAAEGDNWCEQKLKASNGDTPTHEDLTKNKERTSESRGLSRLFSSFLKRPKSQVSEEEGKEVESDKEKGEGGQKEIEFGTSLDEEIILKAPIAAPEPELKTDPSLDLHSLSSAETQPAQEELREDPDFEIKEGEGLEECSKIEVKEESPQSKAETELKASQKPIRKHRNMHCKVSLLDDTVYECVVEKHAKGQDLLKRVCEHLNLLEEDYFGLAIWDNATSKTWLDSAKEIKKQVRGVPWNFTFNVKFYPPDPAQLTEDITRYYLCLQLRQDIVAGRLPCSFATLALLGSYTIQSELGDYDPELHGVDYVSDFKLAPNQTKELEEKVMELHKSYRSMTPAQADLEFLENAKKLSMYGVDLHKAKDLEGVDIILGVCSSGLLVYKDKLRINRFPWPKVLKISYKRSSFFIKIRPGEQEQYESTIGFKLPSYRAAKKLWKVCVEHHTFFRLTSTDTIPKSKFLALGSKFRYSGRTQAQTRQASALIDRPAPHFERTASKRASRSLDGAAAVDSADRSPRPTSAPAITQGQVAEGGVLDASAKKTVVPKAQKETVKAEVKKEDEPPEQAEPEPTEAWKVEKTHIEVTVPTSNGDQTQKLAEKTEDLIRMRKKKRERLDGENIYIRHSNLMLEDLDKSQEEIKKHHASISELKKNFMESVPEPRPSEWDKRLSTHSPFRTLNINGQIPTGEGPPLVKTQTVTISDNANAVKSEIPTKDVPIVHTETKTITYEAAQTDDNSGDLDPGVLLTAQTITSETPSSTTTTQITKTVKGGISETRIEKRIVITGDADIDHDQVLVQAIKEAKEQHPDMSVTKVVVHQETEIADE
- binding of protein 4.1 to PDZ 1+2 module (PDZ 1+2 module): no binding
- binding to protease-resistant module [1]: binds
- affinity for three PDZ domains vs 4.1B (I3) domain [2]: significantly lower affinity
